Assay: soluble on expression in E. coli; label from the status in PepcDB or PDB records

| Sequence | soluble on expression in E. coli |
| --- | --- |
| MGKKSKNSVTTQTQWKRLKIDFVERKIDKDDVFFEEVSDEQLNDKIIVPLFTSSGTFEETIGILIQWQEYLKSRSDRLSEVFLSKVNSYFEHIRITLALPFDESKWAELETLTETDLNKTPIFINNIRTSTVSVILHLENLIKSFHLNVKSAEIFPFDSDSFGLPPINCRKILNPLLWMKAGIEKLIQNNCQCDQPPIVPLITLLDLAPKEGHFQELAIASFFLENTAHKLDYSCSDDEKKFLDQIKMKFGTTKVDKLTMVLPDILMAYSEELVERVMPVSYFIPFELFRMMLLSWQPKVLNLRLRTEACSSIEDAARIEWDDEDVFTSTTLFNCPLFDRCEPVCLGDEEIILNCKLIVDCSGSRLFDPMFNEGNVYTAGRDFLVLFPMQTIILKRIVPLKVGSSVKVQLKKQIDYIVNTFFFNASEHQDRVVNYELTFTNSTDVQMSAVKRCIPQVANGRQIGVNLNVEQETRDLFTDHGNSCPGRHMFASFFDSENQVIVDLKVVLAN | not soluble |
| MGKNDQYYAVARGKQVGIYRTWNECKTQIDGFQNARFKKFATEAEARKFVADNMSVPGSKPVTPAVSTSSATRKRTHEGTKFTEAKKMKTEEEVIDPEFANAPVVYTDGACSSNGTKNAKAGWGVYWGDDSEDNEFGPVYGAPTNNRGELIAVQKAIEKAIEKRLPKVVIKTDSNLLVQSMNIWIHGWKRKGWKTSTGSEVLNQDVLMKIDNLRQKLKVKFLHVRGHAGIDGNEKADELARKGAQMFIKRS | not soluble |
| MGKPSGERILQMKIALVMLAAGNSRRFGSNKLLYEIEGKPMYLLTLEKLKKASEKIPESEIIVVTQYEEIVKKAGEMKIPVFINPRPEDGISLSMQIGLMSVRDTDACLFTVSDQPWLEADTVVALTELFENEKKGMACIRWNGKTGNPCIFGQKYYEELMEISGDKGGKKIIKKHPEDVAYLQIRNARELQDADEPDVFTAGNLR | not soluble |
| MGKQCFVTGRKASTGNNRSHALNSSKRRWNANLQKVRILVDGKPKKVWVSARALKSGKVTRVLEHHHHHH | not soluble |
| MGKRNLDETMNESTVSEANGDATAPTTEKDEYQALCELVNPIAQPLANRKLAKKVYKLIKKASAGDKTLREGIKDVQKELRRNEKGICILAGNVSPIDVYSHIPGICEEKEIPYVYIPSREQLGLAVGHRRPSILIFVKPSGDFKELYDEVAEALRHLTVEAA | not soluble |
| MGKSASKQFHNEVLKAHNEYRQKHGVPPLKLCKNLNREAQQYSEALASTRILKHSPESSRGQCGENLAWASYDQTGKEVADRWYSEIKNYNFQQPGFTSGTGHFTAMVWKNTKKMGVGKASASDGSSFVVARYFPAGNVVNEGFFEENVLPPKK | soluble |
| MGKTNLAPGFRFHPTDVELVRYYLKRKVMGKKFQVDAIAEVDIYKFEPPDLPDKSCLGTGDLKWYFFCPREKKYPKGGKANRSTECGYWKTTGRDRDVSYNDEVTGKIRTLIYHYGKIPRGDRTDWVIHEYRLEDKVLAQKNVPQDTYVLCVLFKKNGLGPRHGSQYGAPFKEEDWSDKEEEYTQNHLVAGPSKETSLAAKASHSYAPKDGLTGVISESCVSDVPPLTATVLPPLTSDVIAYNPFSSSPLLEVPQVSLDGGELNSMLDLFSVDNDDCLLFDDFDYHNEVRHPDGFVNKEAPVFLGDGNFSGMFDLSNDQVVELQDLIQSPTPHPPSPPAQASIPDDSRSNGQTKDD | soluble |
| MGKVYVFDHPLIQHKLTYIRDKNTGTKEFRELVDEVATLMAFEITRDLPLEEVEIETPVSKARAKVIAGKKLGVIPILRAGIGMVDGILKLIPAAKVGHIGLYRDPQTLKPVEYYVKLPSDVEERDFIIVDPMLATGGSAVAAIDALKKRGAKSIKFMCLIAAPEGVKAVETAHPDVDIYIAALDERLNDHGYIVPGLGDAGDRLFGTK | soluble |
| MGKYFGTDGVRGEANVELTPELAFKLGRFGGYVLSQHETERPKVFVARDTRISGEMLESALIAGLLSVGIEVYKLGVLATPGVSYLVRTEKASAGVMISASHNPALDNGIKFFGNDGFKLADDQELEIEALLDAPEDTLPRPSAEGLGTLVDYPEGLRKYEKFLVTTGTDLSGMTVALDTANGAASVSARDVFLDLNAEIAVIGEKPNGLNINDGVGSTRPEQLQELVKETGADLGLAFDGDSDRLIAVDETGEIVDGDRIMFIIGKYLSEKGLLAHNTIVTTVMSNLGFHKALDKQGINKAITAVGDRYVVEEMRSSGYNLGGEQSGHVIIMDYNTTGDGQLTAIQLAKVMKETGKSLSELAAEVTIYPQKLVNIRVENSMKERAMEVPAIANIIAKMEDEMAGNGRILVRPSGTEPLLRVMAEAPTDAEVDYYVDTIADVVRTEIGCDN | not soluble |
| MGKYFGTDGVRGVANQELTPELAFKLGRYGGYVLAHNKGEKHPRVLVGRDTRVSGEMLESALIAGLISIGAEVMRLGIISTPGVAYLTRDMGAELGVMISASHNPVADNGIKFFGSDGFKLSDEQENEIEALLDQENPELPRPVGNDIVHYSDYFEGAQKYLSYLKSTVDVNFEGLKIALDGANGSTSSLAPFLFGDLEADTETIGCSPDGYNINEKCGSTHPEKLAEKVVETESDFGLAFDGDGDRIIAVDENGQIVDGDQIMFIIGQEMHKNQELNNDMIVSTVMSNLGFYKALEQEGIKSNKTKVGDRYVVEEMRRGNYNLGGEQSGHIVMMDYNTTGDGLLTGIQLASVIKMTGKSLSELAGQMKKYPQSLINVRVTDKYRVEENVDVKEVMTKVEVEMNGEGRILVRPSGTEPLVRVMVEAATDEDAERFAQQIADVVQDKMGLDK | not soluble |
| MGLALQHSHRWDLSPREAANLQTRLRPLVLAEDALPDEIRTVAGVDVGFEDHGRITRAAVAVLDFPSLRPSDQAIVRRPTRFPYVPGLLSFRELPALLEALERLNLLPGLILVDGHGYAHPRRFGIACHLGVLTGIPTIGVGKTRLVGTHGELAEDRGSWIPLIDGDETVGAVVRTRRGVQPVYVSVGHRLSLPTAVDWVLRCTPRYRLPETTRQAHRLASALEHHHHHH | not soluble |
| MGLGRVITRSLSSVEPALSQKLTIQPAIERSPTDLLNALSETVGPDTTAPHFAYIDDPITIPSTQSTKKTYFMAKEFGKRAARELATEWPTLFAFDRDQPQLPVFRPRHLADPLQVEPTENNLLKMISSREVKDSCILYERMRSENVDVSEKVQLELFRLVTYYNSSNVPFAEWEEFVGMRNFGEDSTSSWKSGAVADLLFETLPKTDETVSIMIAGLCKFSDHSSLERARELYKEHRAAKGKVYREAFNGLIGASSYSVGKKLVAEMISLRMTPDIFTFNALLSSAAKAGKFEDRVKAFTEIIGEMKEIGVEPALSSFHLIIKNIIDFKLLDNEKRESDEQKKTYNHQLTVAISWLNEIQNSLTGKTLKPITSTCNLFFVEAMGIHYRAANENLAENLVSIYESKANEVKMPAFTIESMFYNRQLQLAVEQSASLNRIYDLYTTMVPRLVGVNNYLSSLVFRKLAASSDRHWPLLRRVIIDGIAAGQMNGVIGEEMRKQLCNVQLHTLGTSEREQFTSLVQKLVAVWVEFSQFTEERMRRLQRKLSPSQISECALLLTRIGEQQKAYELLDLLLDETASSGDEATVYPRGHARPWAMAELFEDALRKRDTYAAATCLQIMSLTANRAKLEPLANRIFEKCNVNQEQVRIIQGFIRLRPQ | not soluble |
| MGLMKKFRDYFLEEDYEDYDEEYEAPQPEEEAPPKTAGKANVVSLQSVQKSAKVVLAEPRVYAEAQEIADHLKSRRAVIVNLQRIQHEQAKRIVDFLSGTVYAIGGDIQQVGTKIFLCTPENVDVSGSISLDGEDDRPMKRW | not soluble |
| MGLQFAYLPVEIGQVSDEKCSAFHQLMATLPGPVLAFCNSGNRARALYSRDVGTTTTPAETISAACDWEHEAAAVTEAESEAAGAAAVSAASSRDEAAGKSIPVTPACNWDNAFDIVVVGGGSAGLGVTASLLRRRSSLRIAIIEPNDKHYYQPAWTLVGGGAYAVDQTVRNTADVIPHGAEWIKAEVSGFSPNDNLVHLADGRTIGYQQLIVCPGIRLAWEKIEGIQETLGKNGVTSNYLFDLAPYTWSLTQQLKGGKALFTQPPMPIKCAGAPQKAMYLSCDYWQRQGVLDKIEVEFDSAGAVLFGVADFVPPLMEYVRKYHANLVFNSNLVKVNGPEKIATFEIKNEAGEVTRVDKPFDMLHVTPPQAAPDFLRDSPLADASGYCEVNPKTLQHTRFANIFSLGDACSSPNTKTAAAVRKQIVIVAENLLAAKDGREFHAVYDGYGACPLTVENGKVVLAEFGFGGKLLPTFPLNPAVARKLYWWFKVKLFPWLYWEGLEHHHHHH | not soluble |
| MGLSPHVEALQVLQTALQTGEGFIKVTGEVGTGKTLICRKLINELPQGFHCAYLPNPYLTPAELRWAVANELGLKYTSEIDQQQLTGLIQQQLLALSTHGHAIVLVLDEAQALPDESLEALRLFTNLETESRKLLQVVLFGQPELDERLKRQAFRQLRQRITFSYNLRPLEHHHHHH | not soluble |
| MGMEYSFGFTKIDEAQKQSMVDGVFHSVAENYDKMNDILSLGLHRMWKNSMVAWLSPPAVFHWKVLDVAGGTGDIAFRILNASRQKAHATVLDINGSMLSVGKKRAEKNGLAPLIDFVEANAEHLPFEDQSFDAYTIAFGIRNVPHIDQALREAFRVLKPGGRFLCLEFSNVEMPLLDKIYDLWSFHAIPKLGQLIANDGDAYRYLVESIRKFPKQDDFAHMINHVGFSRVSYRNLTGAIAALHSAWKILEHHHHHH | not soluble |
| MGNIANEAKLLKLDGKAYRNDFMLGNGKGHARDNLSRQRPGTSKRLSCSQLESLYSSNSMAKNIVDIPAEDLTRNGWSLKMQDDKVKALYESKLRQLKAKERLQQLFTYERLYGDGFVSIGTIEKREYSLSEPLDFENIKSVPYINAFSGKKISNRIIDEDVFSPNYGQIESFEVNNRSNNSRIHLLNNTTYSRATTIHRSRVLHQQNLRFEDELEGSSLLENLYDILTVADTSVWSVGQILYDFIFKVYKSADVRSLTPQDKLEIETKMDYQFRTEAIAIIDKEESLGKESSSVAGIGELLDFVWDYLAGAARMPKTVLKGQEGGTVTGAQYDVMNYYSRITAIQENQLRPHLEYLMRCLMWAEDECGGRLDPDSIEWSVEFNPLWNVDSKTDAEIRKLTAETDKIYIEAGVSDPDDVHEARFGRFGITETSKFNADSLSRDELDKMAAVVYENYKQDRDNEK | not soluble |
| MGNILIVKLSRRELSYLLSVKKYNDEGKPAKLSWISKDLNVSVASAYEEISHLESKGFLKKSDKGIFITDEGKKAIDSLLRAHRVIETFLVKIGLSPDQACNYTKQFDYSVPDEVIERIYEYLGKPEKCPHGENIPY | soluble |
| MGNNTIGARKSTTSKFWKCRSCIASRTTESRNNSIIQQRRNFIIRTKKEIPFPKRGASKDSCGSCHNQKNLIVCHLFLFKNHKKLFF | not soluble |
| MGNSCQNGTYGNNYQNSNRFQNDRFASRYVDGNDTEDCYSGSSRASLAGALRQGLNLKSPVLGYKTPNVRELYTLGRELGQGQFGKTYLCTEISTGCQYACKTILKSNLRCVSDIEDVRREIQIMHHLSGQKNIVTIKDTYEDEQAVHIVMELCAGGELFSKIQKRGHYSERKAAELIKIIVGIIETCHSHGVMHRDLKPENFLLLDADDEFSVKAIDFGLSVFFRPGQVFREVVGSPYYIAPEVLEKRYGPEADIWTAGVILYVLLTGVPPFWADTQSGIYEKVLDGRIDFKSNRWPRISDSAKDLIKKMLCPYPSERLKAHEVLKHPWICDNGVATNRALDPSVLPRLKQFSAMNRLKKLSLQIIAERLSEEEIVGLREMFKAMDTKNRSVVTFGELKGLKRYSSVFKDTEINDLMEAADDTTSTINWEEFIAAAVSLNKIEREKHLMAAFTYFDKDGSGFITVDKLQKACMERNMEDTFLEEMILEVDQNNDGQIDYAEFVTMMQSNNFGLGWQTVESSLNVALREAPQVY | not soluble |
| MGPQSDSRTLISTYSQQSFQQFSFEYCYHSNTPSLPFSAIFSLYWLLHPFSASTGFSKGPQSDYRTLISTYYQQSFQQFSFEYCYHSNTPSLVSLFFSHLQPFLAIFSHFQPFSASAGFSKGPQSDSRTLISTYSQQSFQQFSFEYCCLSNTRSLVSLF | not soluble |

— the DeepSol protein solubility set
